Assay results published in doi:10.1101/2024.03.19.585385 (bioRxiv, 2024).

Target: T1, RNAP α subunit (αI) (T. thermophilus, UniProt Q5SHR6 1-315)
T1 sequence (looked up): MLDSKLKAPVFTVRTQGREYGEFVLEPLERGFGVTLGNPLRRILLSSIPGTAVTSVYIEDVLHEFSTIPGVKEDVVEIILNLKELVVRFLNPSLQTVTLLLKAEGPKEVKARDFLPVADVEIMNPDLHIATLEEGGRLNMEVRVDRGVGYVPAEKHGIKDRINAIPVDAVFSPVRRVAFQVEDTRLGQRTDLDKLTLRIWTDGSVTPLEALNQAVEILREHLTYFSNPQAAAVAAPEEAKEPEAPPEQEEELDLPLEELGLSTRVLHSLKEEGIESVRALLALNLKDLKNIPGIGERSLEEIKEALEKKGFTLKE
Assay: cryo-EM structure

B1: ribosomal protein S10 (NusE) (natural protein, T. thermophilus, UniProt Q5SHN7 1-105, looked up)
chain: MPKIRIKLRGFDHKTLDASAQKIVEAARRSGAQVSGPIPLPTRVRRFTVIRGPFKHKDSREHFELRTHNRLVDIINPNRKTIEQLMTLDLPTGVEIEIKTVGGGR
  binding result: binds
